The results in this text go back to patent US20240254227A1 (Alector, published 2024).

T1: recombinant murine CD300LB overexpressed on BaF/3 cells (mouse, UniProt Q3U497 18-209)
T1 construct: Cells carry pMXs-Myc-tagged muCD300LB together with FLAG-tagged DAP12; also called muCD300LB; BaF/3 overexpressing muCD300LB
T1 sequence: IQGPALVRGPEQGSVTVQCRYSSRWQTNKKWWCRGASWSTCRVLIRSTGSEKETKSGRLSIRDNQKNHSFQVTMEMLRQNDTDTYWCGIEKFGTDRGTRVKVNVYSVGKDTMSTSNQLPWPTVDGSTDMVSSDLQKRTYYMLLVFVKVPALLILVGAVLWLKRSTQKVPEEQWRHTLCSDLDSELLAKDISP

T2: murine CD300LB stably expressed on Jurkat cells (mouse, UniProt Q3U497 18-209)
T2 construct: also called muCD300LB; mouse CD300LB
T2 sequence: T1 sequence

B1: anti-CD300LB antibody CD-18 (antibody, V domains shown)
VH: DVQLQESGPDLVKPSQSLSLTCTVTGYSITSGYSWHWIRQFPDNKLEWMGYILSRGDTNFNPSLKSRISITRSTSNNQFFLHFNSVTTEDTATYYCARDFFDYWGQGTTLTVSS
VL: DVLMTQTPLSLPVSLGDQASISCRSSQSIVHSNGNTYLEWYLQKPGQSPKLLIYKVSDRFSGVPDRFSGSGSGTDFTLKISRVEAEDLGVYFCFQGSHVPYTFGGGTKLEIK
B2: anti-CD300LB antibody CD-12 (antibody, V domains shown)
VH: QIQLVQSGPELKKPGETVKISCKASGYTFTDYSMHWVRQAPGKGLKWMAWINTETGEATHADDFKGRFDFSLDTSASTAYLQIKNLKNEDTGIYFCVCYGSSYGMDYWGQGTSVTVSS
VL: DIVLTQSPASLPVSLGQRATISCRASKSVRTSGASYMHWYQQKPGQPPKLLIYLASNLKSGVPTRFSGSGSGTDFTLNIHPVEEEDAATYYCQHNREVPPTFGGGTKLEIK
B3: anti-CD300LB antibody CD-17 (antibody, V domains shown)
VH: QIQLVQSGPELKKPGETVKISCKASGYTLTDYSMHWVKQAPGKGLKWMGWINTETGEPRYGDDFKGRFAFSLETSASSAYLQINNLKNDDTATYFCATYGRSYGMDFWGQGTSVTVSS
VL: B2 VL with P12A, R30S, T31P, A34H, T64A, E85G, V98L, T106S
B4: anti-CD300LB antibody CD-15 (antibody, V domains shown)
VH: QIQLVQSGPELKKPGETVKISCQVSGYTFTDYSMHWLKQAPGKGLKWMAWINTETGESTYTDEFKGRFVFSLETSVRTAYLKINNLKNEDTATYFCGTYGSSYGMAYWGQGTSVTVSS
VL: B2 VL with R30S, A34S, M37L, N57K, K59E, T64A, S67R
B5: anti-CD300LB antibody CD-13 (antibody, V domains shown)
VH: QIQLVQSGPELKKPGETVKISCKASGYTFTDYSMHWVKQAPGKGFKWMAWINTETGAPTHADDFRGRFAFSLETSASTAFLQISNLKTEDTATYFCVTFGKSYGMNYWGQGTSVTVSS
VL: B2 VL with P12S, R30G, T31S, A34S, M37L, K59E, T64A, D74E, R96A
B6: anti-CD300LB antibody CD-16 (antibody, V domains shown)
VH: QIQLVQSGPELKKPGETVKISCKASGYTFTDYSMHWVKQAPGKGLKWMAWINTETGEPTYADDFRGRFAFSLETSGRTAYLEINNLRNEDTATYFCVTYGSSYGMAYWGQGTSVTVSS
VL: B2 VL with P12A, R30S, T31R, A34Y, M37L, N57K, K59E, T64A, E84A, V98I
B7: anti-CD300LB antibody CD-14 (antibody, V domains shown)
VH: QIQLVQSGPELKKPGETVKISCKASGYTFTDYSLHWVKQTPEKNLKWMAWINTETGAPTYADDFKGRFAFSLETSSNTAYLLINNLKNEDTATYFCALTMVNYWGQGTTLTVSS
VL: DIVMTQSQKFMSTSVGDRVSVTCKASQNVGIRVAWHQQKPGQSPKTLIYSTSYRYSGVPDRFTGSGSGTEFILTISNVQSEDLAEYFCQQYNSYPYTFGGGTKLEIK
B8: anti-CD300LB antibody CD-10 (antibody, V domains shown)
VH: QVQLQQSGPELVRPGVSVKISCKGSGYTFTDYAMHWVKQSHVRSREWIGVIGTYNGHTNYNQKFKGKATMTVDKSSSTAYLELARLTSEDSAIYYCARSGSYYYSMDYWGQGTSVTVSS
VL: QIVLTQSPAIMSASPGEKVTMTCSASSSVNYMHWYQQKSGTSPKRWIYDTSKLSSGVPARFSGSGSGTSYSLTISTMEAEDAATYYCQQWSSNPPMTFGGGTKLEIK
B9: anti-CD300LB antibody CD-11 (antibody, V domains shown)
VH: QIQLVQSGPEVKKPGETVKISCKASGYTLTDYSMHWVMQTPGTGLKWMAWMNTETGEPTYADDFKGRFAFSLETSAGTAYLQIDNLKNEDTATYFCATYGKSYGMKYWGQGTSVTVSS
VL: DIVLTQSPPSLAVSLGQRATISCRATKSVSPYLHWYQQTPGQPPKLLIYLASNLDSGVPARFSGSGSGTDFTLNIHPVEEEDAATYYCQHNKELPPTFGGGTRLEIK

Substitutions are numbered along the chain they refer to.

In one assay the target is T3, murine CD300A-Fc (mouse).
T3 construct: hIgG1-Fc fusion; the entry is the whole fusion chain; also called mCD300A; Mouse CD300A-Fc
T3 sequence (chain, as listed by the source limits assumed): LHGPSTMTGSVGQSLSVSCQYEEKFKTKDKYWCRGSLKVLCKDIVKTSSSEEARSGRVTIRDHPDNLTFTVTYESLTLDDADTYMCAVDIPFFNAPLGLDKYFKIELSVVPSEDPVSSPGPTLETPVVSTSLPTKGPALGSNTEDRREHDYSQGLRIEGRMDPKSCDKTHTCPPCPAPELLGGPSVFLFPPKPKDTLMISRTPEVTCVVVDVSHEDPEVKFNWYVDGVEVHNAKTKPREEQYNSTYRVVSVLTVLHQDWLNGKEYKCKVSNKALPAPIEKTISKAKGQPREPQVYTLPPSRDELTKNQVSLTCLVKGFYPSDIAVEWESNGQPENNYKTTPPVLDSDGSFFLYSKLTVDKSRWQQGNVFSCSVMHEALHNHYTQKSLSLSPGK
The assay is described as follows: SPR (Carterra LSA), antibody immobilised. The source says: In addition to the screening of antibodies for cross-reactivity by FACS analysis, surface plasmon resonance (SPR) analysis was used to determine the binding of antibodies to recombinant huCD300 and muCD300 family members (orthologs) conjugated to an Fc (human CD300A-Fc SEQ ID NO:144; human CD300LB-Fc SEQ ID NO:145; human CD300C-Fc SEQ ID NO: 146; human CD300D-Fc SEQ ID NO: 147; human CD300E-Fc SEQ ID NO: 148; human CD300F-Fc SEQ ID NO: 149; murine CD300A-Fc SEQ ID NO: 150; murine CD300LB-Fc SEQ ID NO:151; murine CD300C-Fc SEQ ID NO: 152; murine CD300D-Fc SEQ ID NO: 153, and murine CD300E-Fc SEQ ID NO: 154).
Binding of mouse anti-CD300LB IgG1 antibodies of the present disclosure to human and murine CD300 orthologs were evaluated by surface plasmon resonance (SPR) using a Carterra LSA instrument (Carterra, Salt Lake City, UT). […] A HC200M sensor chip (Carterra) was activated using the single channel flow cell with a 7-minute injection of a 1:1:1 mixture of 100 mM MES pH 5.5, 100 mM sulfo-NHS, 400 mM EDC (all reconstituted in MES pH 5.5; 100 μL of each mixed in vial immediately before running assay). After switching to the multi-channel array flow cell, the antibodies were injected over the activated chip in a 96-spot array for 10 minutes. The remaining unconjugated active groups on the chip were then blocked by injecting 1M Ethanolamine pH 8.5 (Carterra) for 7 minutes using the single channel flow cell. After priming with running buffer (HBS-TE, Carterra) with 0.5 mg/ml BSA (Sigma), the immobilized anti-CD300LB antibodies were tested for their ability to bind human and mouse recombinant CD300LB extracellular domains. Human CD300 family members and mouse CD300A were hIgG1-Fc fusions, while mouse CD300LB, mouse CD300C, mouse CD300D, and mouse CD300E were mouse IgG2a-Fc fusions (R&D Systems). Binding was assessed by injecting each analyte over the entire antibody array using the single channel flow cell. CD300 analytes were diluted to 300 nM or 600 nM in running buffer and injected in series without regeneration. Two or three buffer blanks were run between each mouse or human ortholog, respectively. Data were processed and analyzed using NextGenKIT high-throughput kinetics analysis software (Carterra).
As for B1, the binding result was “no binding (tested: 300 nM or 600 nM)”.

As for B2, the binding result was “no binding (tested: 300 nM or 600 nM)”.

For the molecule B3, the binding result is reported as “no binding (tested: 300 nM or 600 nM)”.

With B4, the binding result is “no binding (tested: 300 nM or 600 nM)”.

With B5, the binding result is given as “no binding (tested: 300 nM or 600 nM)”.

Regarding B6, the binding result was “no binding (tested: 300 nM or 600 nM)”.

As for B7, the binding result was “no binding (tested: 300 nM or 600 nM)”.

On to B8, for which the binding result is listed as “no binding (tested: 300 nM or 600 nM)”.

On to B9, for which the binding result is “no binding (tested: 300 nM or 600 nM)”.

A further assay addresses T1, recombinant murine CD300LB …. The assay is described as follows: flow cytometry, BaF/3 cells overexpressing muCD300LB. The method, then: Purified anti-CD300LB antibodies of the present disclosure were evaluated for their binding affinity to either Jurkat cells overexpressing recombinant huCD300LB or BaF/3 cells overexpressing recombinant muCD300LB. Binding of anti-CD300LB antibodies to the cells was determined as follows. Cells were harvested, washed, and labeled with propidium iodide for viability discrimination. After washing the cells with PBS, 1×10⁵ cells were aliquoted per well in 96-well U-bottom plates and incubated with 100 μL of purified anti-CD300LB antibody at various concentrations in FACS buffer (PBS+2% FBS). After this primary incubation, the supernatant was removed via centrifugation, the cells washed twice with 150 μL of ice-cold FACS buffer, and then incubated with the appropriate secondary antibody on ice for 30 minutes. Following the secondary antibody incubation, the cells were again washed twice with ice-cold FACS buffer and resuspended in a final volume of 200 L FACS buffer. Flow cytometry analysis was then performed using the FACSCanto system (BD Biosciences).
For orientation: A flow cytometer gives signals particle by particle.
B2: the gMFI was found to be 9800 gMFI.

Turning to B4, the gMFI was 8330 gMFI.

On to B5, for which the gMFI worked out at 22100 gMFI.

As to B6, the gMFI worked out at 8970 gMFI.

In the case of B7, the gMFI is 19400 gMFI.

Take B8: the gMFI came out at 6260 gMFI.

B9: the gMFI was determined as 10900 gMFI.

The target of a further assay is T2, murine CD300LB stably expressed on …. The assay is described as follows: flow cytometry, stable Jurkat cells, 10 ug/mL, isotype subtracted. The protocol: Purified anti-CD300LB antibodies of the present disclosure were analyzed for cross-reactivity to other murine CD300 family members stably expressed in Jurkat cells (generation of which is described above). Cells were counted and labeled with 200 nM CFSE, 500 nM VioBlue, or a combination of the two to discriminate between muCD300LB, Parental cells, CD300F, and the other CD300 family members. Cells were washed thoroughly with PBS containing 2% fetal bovine serum then resuspended at a total of 240,000 cells per well. Purified antibodies at 10 μg/mL were added and incubated for one hour before the cells were washed twice again and stained with an APC-labeled anti-mouse secondary. Cells were then analyzed using a BD FACSCanto II. Antibodies were analyzed for specific binding to muCD300LB by FlowJo software by gating on live cells, then the APC gMFI calculated for each labeled population by subtracting the gMFI of the isotype control. The gMFI results of the analysis are presented below in Table 4.
Take B1: the gMFI was found to be 2520 gMFI.

For B2, the gMFI was determined as 4210 gMFI.

Regarding B3, the gMFI was 7920 gMFI.

With B4, the gMFI worked out at 4140 gMFI.

B5: the gMFI amounted to 7600 gMFI.

On to B6, for which the gMFI worked out at 4570 gMFI.

B7: the gMFI was determined as 9550 gMFI.

For the molecule B8, the gMFI was 1610 gMFI.

For B9, the gMFI turned out to be 4660 gMFI.
